According to US20160000910A1:

Tests used:
[1] = molecular target: Aβ1-42 peptide fraction enriched in oligomers (high molecular weight fraction from SEC); assay: ELISA on coated fraction; antibody dilution 1:4 (starting dilution 0.5 µg/ml); assay 2
[2] = molecular target: Aβ1-42 peptide fraction consisting primarily of monomers (LMW monomer fraction from SEC); assay: as above
[3] = molecular target: Aβ1-42 peptide fraction enriched in oligomers (high molecular weight fraction from SEC); assay: ELISA on coated fraction; antibody dilution 1:32 (starting dilution 0.5 µg/ml); assay 3
[4] = molecular target: Aβ1-42 peptide fraction consisting primarily of monomers (LMW monomer fraction from SEC); assay: as above
[5] = molecular target: Aβ1-42 peptide fraction enriched in oligomers (high molecular weight fraction from SEC); assay: ELISA on coated fraction; antibody dilution 1:128 (starting dilution 0.5 µg/ml); assay 3
[6] = molecular target: Aβ1-42 peptide fraction consisting primarily of monomers (LMW monomer fraction from SEC); assay: as above
[7] = molecular target: Aβ1-42 peptide fraction enriched in oligomers (high molecular weight fraction from SEC); assay: ELISA on coated fraction; antibody dilution 1:64 (starting dilution 0.5 µg/ml); mean of 3 assays
[8] = molecular target: Aβ1-42 peptide fraction consisting primarily of monomers (LMW monomer fraction from SEC); assay: as above
[9] = molecular target: Aβ1-42 peptide fraction enriched in oligomers (high molecular weight fraction from SEC); assay: ELISA on coated fraction; antibody dilution 1:16 (starting dilution 0.5 µg/ml); mean of 3 assays
[10] = molecular target: Aβ1-42 peptide fraction consisting primarily of monomers (LMW monomer fraction from SEC); assay: as above
[11] = molecular target: Aβ1-42 peptide fraction enriched in oligomers (high molecular weight fraction from SEC); assay: ELISA on coated fraction; antibody dilution 1:64 (starting dilution 0.5 µg/ml); assay 1
[12] = molecular target: Aβ1-42 peptide fraction consisting primarily of monomers (LMW monomer fraction from SEC); assay: as above
[13] = molecular target: Aβ1-42 peptide fraction enriched in oligomers (high molecular weight fraction from SEC); assay: ELISA on coated fraction; antibody dilution 1:64 (starting dilution 0.5 µg/ml); assay 2
[14] = molecular target: Aβ1-42 peptide fraction consisting primarily of monomers (LMW monomer fraction from SEC); assay: as above
[15] = molecular target: Aβ1-42 peptide fraction enriched in oligomers (high molecular weight fraction from SEC); assay: ELISA on coated fraction; antibody dilution 1:16 (starting dilution 0.5 µg/ml); assay 3
[16] = molecular target: Aβ1-42 peptide fraction consisting primarily of monomers (LMW monomer fraction from SEC); assay: as above
[17] = molecular target: Aβ1-42 peptide fraction enriched in oligomers (high molecular weight fraction from SEC); assay: ELISA on coated fraction; antibody dilution 1:2 (starting dilution 0.5 µg/ml); assay 1
[18] = molecular target: Aβ1-42 peptide fraction consisting primarily of monomers (LMW monomer fraction from SEC); assay: as above
[19] = molecular target: Aβ1-42 peptide fraction enriched in oligomers (high molecular weight fraction from SEC); assay: ELISA on coated fraction; antibody dilution 1:64 (starting dilution 0.5 µg/ml); assay 3
[20] = molecular target: Aβ1-42 peptide fraction consisting primarily of monomers (LMW monomer fraction from SEC); assay: as above
[21] = molecular target: Aβ1-42 peptide fraction enriched in oligomers (high molecular weight fraction from SEC); assay: ELISA on coated fraction; antibody dilution 1:1 (starting dilution 0.5 µg/ml); assay 1
[22] = molecular target: Aβ1-42 peptide fraction consisting primarily of monomers (LMW monomer fraction from SEC); assay: as above
[23] = molecular target: Aβ1-42 peptide fraction enriched in oligomers (high molecular weight fraction from SEC); assay: ELISA on coated fraction; antibody dilution 1:8 (starting dilution 0.5 µg/ml); assay 1
[24] = molecular target: Aβ1-42 peptide fraction consisting primarily of monomers (LMW monomer fraction from SEC); assay: as above
[25] = molecular target: Aβ1-42 peptide fraction enriched in oligomers (high molecular weight fraction from SEC); assay: ELISA on coated fraction; antibody dilution 1:1 (starting dilution 0.5 µg/ml); assay 2
[26] = molecular target: Aβ1-42 peptide fraction consisting primarily of monomers (LMW monomer fraction from SEC); assay: as above
[27] = molecular target: Aβ1-42 peptide fraction enriched in oligomers (high molecular weight fraction from SEC); assay: ELISA on coated fraction; antibody dilution 1:8 (starting dilution 0.5 µg/ml); assay 3
[28] = molecular target: Aβ1-42 peptide fraction enriched in oligomers (high molecular weight fraction from SEC); assay: ELISA on coated fraction; antibody dilution 1:8 (starting dilution 0.5 µg/ml); assay 2
[29] = molecular target: Aβ1-42 peptide fraction enriched in oligomers (high molecular weight fraction from SEC); assay: ELISA on coated fraction; antibody dilution 1:128 (starting dilution 0.5 µg/ml); assay 2
[30] = molecular target: Aβ1-42 peptide fraction consisting primarily of monomers (LMW monomer fraction from SEC); assay: as above
[31] = molecular target: Aβ1-42 peptide fraction enriched in oligomers (high molecular weight fraction from SEC); assay: ELISA on coated fraction; antibody dilution 1:1 (starting dilution 0.5 µg/ml); mean of 3 assays
[32] = molecular target: Aβ1-42 peptide fraction consisting primarily of monomers (LMW monomer fraction from SEC); assay: as above
[33] = molecular target: Aβ1-42 peptide fraction enriched in oligomers (high molecular weight fraction from SEC); assay: ELISA on coated fraction; antibody dilution 1:128 (starting dilution 0.5 µg/ml); mean of 3 assays
[34] = molecular target: Aβ1-42 peptide fraction consisting primarily of monomers (LMW monomer fraction from SEC); assay: as above
[35] = molecular target: Aβ1-42 peptide fraction enriched in oligomers (high molecular weight fraction from SEC); assay: ELISA on coated fraction; antibody dilution 1:16 (starting dilution 0.5 µg/ml); assay 1
[36] = molecular target: Aβ1-42 peptide fraction consisting primarily of monomers (LMW monomer fraction from SEC); assay: as above
[37] = molecular target: Aβ1-42 peptide fraction enriched in oligomers (high molecular weight fraction from SEC); assay: ELISA on coated fraction; antibody dilution 1:2 (starting dilution 0.5 µg/ml); mean of 3 assays
[38] = molecular target: Aβ1-42 peptide fraction consisting primarily of monomers (LMW monomer fraction from SEC); assay: as above
[39] = molecular target: Aβ1-42 peptide fraction enriched in oligomers (high molecular weight fraction from SEC); assay: ELISA on coated fraction; antibody dilution 1:1 (starting dilution 0.5 µg/ml); assay 3
[40] = molecular target: Aβ1-42 peptide fraction consisting primarily of monomers (LMW monomer fraction from SEC); assay: as above
[41] = molecular target: Aβ1-42 peptide fraction enriched in oligomers (high molecular weight fraction from SEC); assay: ELISA on coated fraction; antibody dilution 1:32 (starting dilution 0.5 µg/ml); assay 1
[42] = molecular target: Aβ1-42 peptide fraction consisting primarily of monomers (LMW monomer fraction from SEC); assay: as above
[43] = molecular target: Aβ1-42 peptide fraction enriched in oligomers (high molecular weight fraction from SEC); assay: ELISA on coated fraction; antibody dilution 1:2 (starting dilution 0.5 µg/ml); assay 2
[44] = molecular target: Aβ1-42 peptide fraction consisting primarily of monomers (LMW monomer fraction from SEC); assay: as above
[45] = molecular target: Aβ1-42 peptide fraction enriched in oligomers (high molecular weight fraction from SEC); assay: ELISA on coated fraction; antibody dilution 1:128 (starting dilution 0.5 µg/ml); assay 1
[46] = molecular target: Aβ1-42 peptide fraction consisting primarily of monomers (LMW monomer fraction from SEC); assay: as above
[47] = molecular target: Aβ1-42 peptide fraction enriched in oligomers (high molecular weight fraction from SEC); assay: ELISA on coated fraction; antibody dilution 1:4 (starting dilution 0.5 µg/ml); assay 1
[48] = molecular target: Aβ1-42 peptide fraction enriched in oligomers (high molecular weight fraction from SEC); assay: ELISA on coated fraction; antibody dilution 1:32 (starting dilution 0.5 µg/ml); mean of 3 assays
[49] = molecular target: Aβ1-42 peptide fraction consisting primarily of monomers (LMW monomer fraction from SEC); assay: as above
[50] = molecular target: Aβ1-42 peptide fraction enriched in oligomers (high molecular weight fraction from SEC); assay: ELISA on coated fraction; antibody dilution 1:8 (starting dilution 0.5 µg/ml); mean of 3 assays
[51] = molecular target: Aβ1-42 peptide fraction enriched in oligomers (high molecular weight fraction from SEC); assay: ELISA on coated fraction; antibody dilution 1:4 (starting dilution 0.5 µg/ml); mean of 3 assays
[52] = molecular target: Aβ1-42 peptide fraction consisting primarily of monomers (LMW monomer fraction from SEC); assay: as above
[53] = molecular target: Aβ1-42 peptide fraction enriched in oligomers (high molecular weight fraction from SEC); assay: ELISA on coated fraction; antibody dilution 1:2 (starting dilution 0.5 µg/ml); assay 3
[54] = molecular target: Aβ1-42 peptide fraction consisting primarily of monomers (LMW monomer fraction from SEC); assay: as above
[55] = molecular target: Aβ1-42 peptide fraction enriched in oligomers (high molecular weight fraction from SEC); assay: ELISA on coated fraction; antibody dilution 1:16 (starting dilution 0.5 µg/ml); assay 2
[56] = molecular target: Aβ1-42 peptide fraction consisting primarily of monomers (LMW monomer fraction from SEC); assay: as above
[57] = molecular target: Aβ1-42 peptide fraction enriched in oligomers (high molecular weight fraction from SEC); assay: ELISA on coated fraction; antibody dilution 1:32 (starting dilution 0.5 µg/ml); assay 2
[58] = molecular target: Aβ1-42 peptide fraction consisting primarily of monomers (LMW monomer fraction from SEC); assay: as above
[59] = molecular target: Aβ1-42 peptide fraction enriched in oligomers (high molecular weight fraction from SEC); assay: ELISA on coated fraction; antibody dilution 1:4 (starting dilution 0.5 µg/ml); assay 3
[60] = molecular target: Aβ1-42 peptide fraction consisting primarily of monomers (LMW monomer fraction from SEC); assay: as above

## control antibody 6E10
[1]
  O.D. (O.D. at 405 nm): 3.37
[2]
  O.D. (O.D. at 405 nm): 3.29
[3]
  O.D. (O.D. at 405 nm): 1.4
[4]
  O.D. (O.D. at 405 nm): 1.54
[5]
  O.D. (O.D. at 405 nm): 0.66
[6]
  O.D. (O.D. at 405 nm): 0.86
[7]
  O.D. (mean) (O.D. at 405 nm): 0.92
[8]
  O.D. (mean) (O.D. at 405 nm): 0.94
[9]
  O.D. (mean) (O.D. at 405 nm): 1.92
[10]
  O.D. (mean) (O.D. at 405 nm): 1.98
[11]
  O.D. (O.D. at 405 nm): 0.93
[12]
  O.D. (O.D. at 405 nm): 0.81
[13]
  O.D. (O.D. at 405 nm): 0.88
[14]
  O.D. (O.D. at 405 nm): 0.94
[15]
  O.D. (O.D. at 405 nm): 2.07
[16]
  O.D. (O.D. at 405 nm): 2.23
[17]
  O.D. (O.D. at 405 nm): 3.39
[18]
  O.D. (O.D. at 405 nm): 3.3
[19]
  O.D. (O.D. at 405 nm): 0.95
[20]
  O.D. (O.D. at 405 nm): 1.08
[21]
  O.D. (O.D. at 405 nm): 3.36
[22]
  O.D. (O.D. at 405 nm): 3.67
[23]
  O.D. (O.D. at 405 nm): 2.73
[24]
  O.D. (O.D. at 405 nm): 2.67
[25]
  O.D. (O.D. at 405 nm): 3.67
[26]
  O.D. (O.D. at 405 nm): 3.77
[27]
  O.D. (O.D. at 405 nm): 3.23
[28]
  O.D. (O.D. at 405 nm): 2.99
[29]
  O.D. (O.D. at 405 nm): 0.61
[30]
  O.D. (O.D. at 405 nm): 0.75
[31]
  O.D. (mean) (O.D. at 405 nm): 3.64
[32]
  O.D. (mean) (O.D. at 405 nm): 3.83
[33]
  O.D. (mean) (O.D. at 405 nm): 0.63
[34]
  O.D. (mean) (O.D. at 405 nm): 0.75
[35]
  O.D. (O.D. at 405 nm): 1.78
[36]
  O.D. (O.D. at 405 nm): 1.78
[37]
  O.D. (mean) (O.D. at 405 nm): 3.59
[38]
  O.D. (mean) (O.D. at 405 nm): 3.59
[39]
  O.D. (O.D. at 405 nm): 3.89
[40]
  O.D. (O.D. at 405 nm): 4.04
[41]
  O.D. (O.D. at 405 nm): 1.27
[42]
  O.D. (O.D. at 405 nm): 1.18
[43]
  O.D. (O.D. at 405 nm): 3.55
[44]
  O.D. (O.D. at 405 nm): 3.48
[45]
  O.D. (O.D. at 405 nm): 0.62
[46]
  O.D. (O.D. at 405 nm): 0.64
[47]
  O.D. (O.D. at 405 nm): 3.1
[48]
  O.D. (mean) (O.D. at 405 nm): 1.32
[49]
  O.D. (mean) (O.D. at 405 nm): 1.36
[50]
  O.D. (mean) (O.D. at 405 nm): 2.98
[51]
  O.D. (mean) (O.D. at 405 nm): 3.37
[52]
  O.D. (mean) (O.D. at 405 nm): 3.27
[53]
  O.D. (O.D. at 405 nm): 3.83
[54]
  O.D. (O.D. at 405 nm): 4
[55]
  O.D. (O.D. at 405 nm): 1.92
[56]
  O.D. (O.D. at 405 nm): 1.94
[57]
  O.D. (O.D. at 405 nm): 1.3
[58]
  O.D. (O.D. at 405 nm): 1.34
[59]
  O.D. (O.D. at 405 nm): 3.64
[60]
  O.D. (O.D. at 405 nm): 3.52
